{
  "source": "patent US20240262910A1",
  "about": "(Memorial Sloan Kettering, published 2024)",
  "binders": {"B1": {"name": "TDI-Y-007 (antibody, V domains shown)", "VH": "EVHLLESGGGLVQPGGSLRLSCAASGFIFSSNAMSWVRQAPGKGLEWVSAISGYGGNTYYADSVKGRFTISRDNSKNTLYLQMNSLRAEDTAVYYCAKWGTYIVGATGDYWGQGTLVTVSS", "VL": "QSALTQPPSASGSPGQSVTISCTGTSNDVGGYNYVSWYQQHPGKAPKLLIYEVSKRPSGVPDRFSGSQSGNTASLTVSGLQAEDEADYYCSSYAGSNNWVFGGGTKLTVL", "notes": "also called 4B2 (recombinant, human IgG1 constant region)"}},
  "key": {"[1]": {"target": "T1, mouse CD33 extracellular domain with 6xHis-tag (mouse, UniProt Q63994 18-240)", "T1 construct": "range 18-240; also called moCD33-His; moCD33(ECD)-His", "T1 sequence": "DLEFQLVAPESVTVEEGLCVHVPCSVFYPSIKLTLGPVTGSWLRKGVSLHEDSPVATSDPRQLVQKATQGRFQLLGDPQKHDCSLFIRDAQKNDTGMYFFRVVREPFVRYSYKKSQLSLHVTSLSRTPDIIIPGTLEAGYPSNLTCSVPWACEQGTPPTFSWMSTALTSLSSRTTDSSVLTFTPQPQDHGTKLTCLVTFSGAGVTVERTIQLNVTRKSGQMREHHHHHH", "assay": "ELISA: CD33-His protein at 5 µg/mL captured on Ni-NTA plate, antibody at 10 µg/mL in triplicate, HRP anti-human Fc detection, OD450", "description": "Binding to Recombinant CD33 Protein. Binding to CD33 protein was carried out by ELISA using human CD33-His (full-length or IgC2 domain), cynomolgus monkey CD33-His and mouse CD33-His. Recombinant proteins at 5 μg/mL were captured by pre-blocked Ni-NTA plates. Candidate antibodies were added at 10 μg/mL in triplicate and detected using horseradish peroxidase (HRP)-conjugated anti-human Fc antibody. […] No binding was detected to cynomolgus or mouse CD33 for either TDI-Y-006 and TDI-Y-007. 1J19 and H195 only bound to full-length human CD33 ECD but not to IgC2 as these antibodies target the IgV domain."}, "[2]": {"target": "T2, human CD33, full length, on cells (human, UniProt P20138 18-364)", "T2 construct": "NIH-3T3 cells stably overexpressing full-length human CD33, or AML lines U937 and Set2 with endogenous CD33; the cell line is named under assay; also called 3T3-huCD33; 3T3-CD33", "T2 sequence (P20138 18-364)": "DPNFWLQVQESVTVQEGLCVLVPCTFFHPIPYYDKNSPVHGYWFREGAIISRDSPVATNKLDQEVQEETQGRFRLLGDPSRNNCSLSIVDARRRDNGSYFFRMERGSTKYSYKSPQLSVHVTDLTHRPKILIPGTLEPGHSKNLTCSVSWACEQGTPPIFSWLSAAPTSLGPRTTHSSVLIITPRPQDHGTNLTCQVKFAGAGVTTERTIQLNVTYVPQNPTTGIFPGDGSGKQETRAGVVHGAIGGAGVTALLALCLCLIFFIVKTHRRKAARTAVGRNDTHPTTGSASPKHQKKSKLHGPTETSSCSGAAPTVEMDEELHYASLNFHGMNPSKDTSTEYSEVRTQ", "assay": "flow cytometry on 3T3 cells overexpressing human CD33, antibody titration, AlexaFluor 647 goat anti-human F(ab')2 detection, MFI ratio to secondary only", "description": "(§1) Binding to CD33 on Cells. To assess the binding of TDI-Y-006, TDI-Y-007 and 1J19 to cell surface-bound CD33, 3T3 cells overexpressing CD33, as well as the U937 AML cell line, which expresses endogenous CD33, were used. U937 CD33KO or NALM6 were included as negative controls. Briefly, NALM6, U937 CD33+ and KO cells were blocked with human IgG Fc for 20 minutes on ice. The recombinant antibodies were then serially diluted starting at 100 μg/mL concentration and added for 30 minutes on ice. AlexaFluor 647-conjugated goat anti-human F(ab′)2 was added to cells for 30 minutes on ice, washed and analyzed by flow cytometry, normalized to secondary only staining (MFI ratio). EC50 values were determined by non-linear regression."}, "[3]": {"target": "T2, human CD33, full length, on cells", "assay": "summary table; flow cytometry, 3T3 cells overexpressing CD33; 3T3 cells overexpressing CD33", "description": "as §1"}, "[4]": {"target": "T2, human CD33, full length, on cells", "assay": "flow cytometry, 3T3-CD33 cells", "description": "as §1"}, "[5]": {"target": "T3, human CD33 extracellular domain with 6xHis-tag (human, UniProt P20138 18-259)", "T3 construct": "Bought (R&D Systems, Acro Biosystems); also called huCD33-His; huCD33(ECD)-His", "T3 sequence (P20138 other isoform, or with tags, fused parts or gaps)": "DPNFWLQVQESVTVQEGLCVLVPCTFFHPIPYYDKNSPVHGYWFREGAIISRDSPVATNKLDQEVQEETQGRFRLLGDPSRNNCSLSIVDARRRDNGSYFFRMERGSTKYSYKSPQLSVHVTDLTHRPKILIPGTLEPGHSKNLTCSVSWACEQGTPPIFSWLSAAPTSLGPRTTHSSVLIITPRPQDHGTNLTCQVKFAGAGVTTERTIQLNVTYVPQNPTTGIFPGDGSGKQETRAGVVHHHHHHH", "assay": "BLI, huCD33-His on anti-penta-His sensor, no competitor", "description": "Epitope Binning. Epitope binning was carried out by a BLI competition experiment using an Octet Red96e. Human CD33-His was captured by an anti-penta-His biosensor. A 4×4 matrix with TDI-Y-006, TDI-Y-007, 1J19 and H195 was tested. A reference biosensor was used to determine the overall capture level for each antibody. After pre-binding the antibodies at saturation levels, the biosensors were dipped into antibody solutions to assess competition. […] However, when TDI-Y-006 was pre-bound, binding of TDI-Y-007 was blocked. […] Similarly, 1J19 and H195 have epitopes that partially overlap. No competition was observed between antibodies binding to the membrane-proximal IgC2 domain (TDI-Y-006 and TDI-Y-007) and antibodies binding to the membrane-distal IgV domain (1J19 and H195)."}, "[6]": {"target": "T3, human CD33 extracellular domain with …", "assay": "BLI (Octet Red96e), antibody on anti-huFc sensor, huCD33-His as analyte, 1:1 fit", "description": "The binding affinity to human CD33 protein was measured by biolayer interferometry (BLI) using an Octet Red96e. All experiments were carried out using kinetic buffer (PBS pH 7.4, 0.01% BSA, 0.002% Tween-20). The antibodies were captured by an anti-huFc biosensor and a 7-point, 2-fold dilution series of huCD33-His was used as analyte. The data was processed by double reference subtraction, and response curves were globally fit to a 1:1 Langmuir binding model. […] The binding affinities are similar to the H195 reference antibody."}, "[7]": {"target": "T2, human CD33, full length, on cells", "assay": "summary table; flow cytometry, AML cell line U937; U937 AML cell line (endogenous CD33)", "description": "as §1"}, "[8]": {"target": "T2, human CD33, full length, on cells", "assay": "flow cytometry, U937 cells", "description": "as §1"}},
  "data": [
    {"binder": "B1", "values": [
      {"measurement": "binding result", "setting": "[1]", "value": "no binding (tested: 10 µg/mL)"},
      {"measurement": "EC50 (read off the curve)", "setting": "[2]", "value": "~40", "unit": "nM"},
      {"measurement": "EC50", "setting": "[3]", "value": 17, "unit": "nM"},
      {"measurement": "EC50", "setting": "[4]", "value": 17, "unit": "nM"},
      {"measurement": "BLI total binding capacity (Reference Biosensor)", "setting": "[5]", "value": 0.299},
      {"measurement": "Kd", "setting": "[6]", "value": 1.29, "unit": "nM"},
      {"measurement": "koff", "setting": "[6]", "value": 0.000597, "unit": "s⁻¹"},
      {"measurement": "kon", "setting": "[6]", "value": 464000, "unit": "M⁻¹ s⁻¹"},
      {"measurement": "EC50", "setting": "[7]", "value": 45, "unit": "nM"},
      {"measurement": "EC50", "setting": "[8]", "value": 44.9, "unit": "nM"}
    ]}
  ]
}
